The supplement of paper PMC9170038

Assays:
MS2 coat protein [1] = test: apparent KD of MS2 coat protein, switch OFF state (with FMN for OFF switches, without FMN for ON switches); designed switch direction (-1 OFF switch, 1 ON switch): -1; higher = weaker reporter binding; conditions: FMN input: 0 or 200 uM; Eterna round: R93 (includes R88 designs)
In short: (§1)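 Designed RNA switches were transcribed on-chip from Illumina sequencing clusters and titrated with SNAP-549-labelled MS2 coat protein in twofold steps from 0.7 or 1.5 nM up to 3 µM. Each step lasted 0.8–1.5 h at first and 10–20 min by the end, in 100 mM Tris-HCl pH 7.5, 80 mM KCl and 4 mM MgCl2, without or with constant ligand. Apparent KD is the median, for each design, of fits to normalised cluster binding curves.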

MS2 coat protein [2] = test: apparent KD of MS2 coat protein, switch ON state; designed switch direction (-1 OFF switch, 1 ON switch): -1; higher = weaker reporter binding; conditions: FMN input: 0 or 200 uM; Eterna round: R93 (includes R88 designs)
In short: as §1

## AAAAAAAAAGGAUAUACAGGAGGUAAGGUCGGACAAAAAAGACAUGAGGAUCACCCAUGUAGAAGGUUUAAAAA [Excls2-X]
MS2 coat protein [1]
  apparent KD of MS2 coat protein: 35.1 nM
MS2 coat protein [2]
  apparent KD of MS2 coat protein: 39.4 nM

## AAAAAACAAGGAUAUACAAAAAUAAAAAGAAUAAAGUGAAAACAUGAGGAUCACCCAUGUAGAAGGUGUAAAAA [Default title]
MS2 coat protein [1]
  apparent KD of MS2 coat protein: 44.8 nM
MS2 coat protein [2]
  apparent KD of MS2 coat protein: 67 nM

## AAAAAACAUGAGGAUCACCCAUGUAAGGAUAUGCUAAAAAACACGGAAAACGUGAAUAGCAGAAGGUACAAAAG [Mat - Exclusion 1 - Eli mod - D84]
MS2 coat protein [1]
  apparent KD of MS2 coat protein: 67.7 nM
MS2 coat protein [2]
  apparent KD of MS2 coat protein: 15.9 nM

## AAAAAACAUGAGGAUCACCCAUGUAAGGAUAUGCUCGUAAGUGCGAAAGCACAAAUGAGCAGAAGGUACAAAAA [66%, Wbt, 44]
MS2 coat protein [1]
  apparent KD of MS2 coat protein: 31 nM
MS2 coat protein [2]
  apparent KD of MS2 coat protein: 19.2 nM

## AAAAAACAUGAGGAUCACCCAUGUAAGGAUAUGCUCGUGCGAAAGCACAAAAAAAAGAGCAGAAGGUACAAAAA [66%, Wbt, 38]
MS2 coat protein [1]
  apparent KD of MS2 coat protein: 32.3 nM
MS2 coat protein [2]
  apparent KD of MS2 coat protein: 19.8 nM

## AAAAAACAUGAGGAUCACCCAUGUCAGGAUAUCCGGUUCAAAAAAAAAAAAAGGCGUUGGAGAAGGGACAUUCC [Chica Displaced 10 - Jieux - Exclusion 1]
MS2 coat protein [1]
  apparent KD of MS2 coat protein: 36.4 nM
MS2 coat protein [2]
  apparent KD of MS2 coat protein: 28 nM

## AAAAAACAUGAGGAUCACCCAUGUCAGGAUAUCGUUGAAAAAAAAAAAAAAAAAAAAGCGAGAAGGGACACGAA [exclusion1-cac3]
MS2 coat protein [1]
  apparent KD of MS2 coat protein: 41.8 nM
MS2 coat protein [2]
  apparent KD of MS2 coat protein: 60.7 nM

## AAAAAACAUGAGGAUCACCCAUGUCAGGAUAUCUGUAUUCAAUCCUCGGAUUGAAUACAGAGAAGGGAUAUGAA [Ex1: 604]
MS2 coat protein [1]
  apparent KD of MS2 coat protein: 62.2 nM
MS2 coat protein [2]
  apparent KD of MS2 coat protein: 42.2 nM

## AAAAAACAUGAGGAUCACCCAUGUGAGGAUAUCGAAAAAAAAAUAAAAAUAAAACAUACGAGAAGGCACACCAA [Amethyst 59]
MS2 coat protein [1]
  apparent KD of MS2 coat protein: 35.7 nM
MS2 coat protein [2]
  apparent KD of MS2 coat protein: 30.5 nM

## AAAAAACAUGAGGAUCACCCAUGUGAGGAUAUCGGUAGUGAGGCUAUAGUGUCAGUAAUGAGAAGGCACAUAAA [Brourd 613 Mod 11 - Jieux - Exclusion 1]
MS2 coat protein [1]
  apparent KD of MS2 coat protein: 29.7 nM
MS2 coat protein [2]
  apparent KD of MS2 coat protein: 24.6 nM

## AAAAAACAUGAGGAUCACCCAUGUGAGGAUAUGAACGAAAAUAAAUAAAAAUAAAAGUUCAGAAGGCACAAAAA [66%, Wbt, 10]
MS2 coat protein [1]
  apparent KD of MS2 coat protein: 47.9 nM
MS2 coat protein [2]
  apparent KD of MS2 coat protein: 42.2 nM

## AAAAAACAUGAGGAUCACCCAUGUGAGGAUAUGCGAAACAAAAAAAACAAAAACAAAAGCAGAAGGCACAAAAA [Amethyst 33]
MS2 coat protein [1]
  apparent KD of MS2 coat protein: 25.7 nM
MS2 coat protein [2]
  apparent KD of MS2 coat protein: 25 nM

## AAAAAACAUGAGGAUCACCCAUGUGAGGAUAUGUACGAAAAUAAAUAAAAAUAAAAGUACAGAAGGCACAAAAA [66%, Wbt, 2]
MS2 coat protein [1]
  apparent KD of MS2 coat protein: 41.2 nM
MS2 coat protein [2]
  apparent KD of MS2 coat protein: 35.7 nM

## AAAAAACAUGAGGAUCACCCAUGUGAGGAUAUGUACGAAAUAAAUAAAAAAUAAAAGUACAGAAGGCACAAAAA [Mat - Exclusion 1 - Eli mod - D5]
MS2 coat protein [1]
  apparent KD of MS2 coat protein: 32.4 nM
MS2 coat protein [2]
  apparent KD of MS2 coat protein: 35.5 nM

## AAAAAACAUGAGGAUCACCCAUGUUAGGAUAUGCUAUGGAAAAUAAAAAUAAAACAUAGCAGAAGGAACAAAAA [Denovo 2]
MS2 coat protein [1]
  apparent KD of MS2 coat protein: 36.9 nM
MS2 coat protein [2]
  apparent KD of MS2 coat protein: 18.6 nM

## AAAAAAGGAGGAUAUACGAACAUGUCGAAAGACGUGAAGGGACAUGAGGAUCACCCAUGUAGAAGGUCUAAAAA [Mat - Exclusion 2 - JL mod - D87]
MS2 coat protein [1]
  apparent KD of MS2 coat protein: 29.9 nM
MS2 coat protein [2]
  apparent KD of MS2 coat protein: 30.7 nM

## AAAAAAGGAGGAUAUACGAACAUGUCGAAAGACGUGAAGGGACAUGAGGAUCACCCAUGUAGAAGGUUUAAAAA [Mat - Exclusion 2 - JL mod - D85]
MS2 coat protein [1]
  apparent KD of MS2 coat protein: 19.2 nM
MS2 coat protein [2]
  apparent KD of MS2 coat protein: 35.9 nM

## AAAAAAGGAGGAUAUACGUACAUGUCGAAAGACGUGAAGGGACAUGAGGAUCACCCAUGUAGAAGGCUUAAAAA [Mat - Exclusion 2 - JL mod - D70]
MS2 coat protein [1]
  apparent KD of MS2 coat protein: 22.9 nM
MS2 coat protein [2]
  apparent KD of MS2 coat protein: 37.2 nM

## AAAAACCUAGGAUAUACAUGAGGAUCACCCAUGUAAAGAAACAACAAGGGAAACACACGUAGAAGGAGGAAGAA [JR_Exc003_Sub1204]
MS2 coat protein [1]
  apparent KD of MS2 coat protein: 74.8 nM
MS2 coat protein [2]
  apparent KD of MS2 coat protein: 24.5 nM

## AAAAAGAGAGGAUAUACAUGAGGAUCACCCAUGUGAAAGACGAAAAAAAGUCUAAAAAGUAGAAGGCUCAAAAA [65%, Moding Exclusion3-cac2, 12]
MS2 coat protein [1]
  apparent KD of MS2 coat protein: 22.5 nM
MS2 coat protein [2]
  apparent KD of MS2 coat protein: 17.1 nM

## AAAAAGCGAGGAUAUACAUGAGGAUCACCCAUGUAAAAAAAAAAAAAGGGAAAAAAAAGUAGAAGGCGCAAAAA [Sekhemraneferkhau Wepwawetemsaf]
MS2 coat protein [1]
  apparent KD of MS2 coat protein: 48.7 nM
MS2 coat protein [2]
  apparent KD of MS2 coat protein: 43.2 nM
